# The DeepSol protein solubility set
# Experiment: soluble on expression in E. coli; label from the status in PepcDB or PDB records
row,Sequence,soluble on expression in E. coli
1,EDFVVSGALNLSLIRERTGFQAKATEDYQTLAGLVMSLLDRLPSTGDSLSWQGWNLQVVGVEERRVTRVLLQKQP,not soluble
2,MSLKHQETTSQQYNFSIIKHGDISTPQGFTAGGMHIGLRANKKDFGWIYSSSLASSAAVYTLNQFKAAPLIVTEDTLQKSKGKLQALVVNSANANSCTGQQGIDDARQTQTWVAQQLQIPSEHVAVASTGVIGEYLPMDKIKTGTEHIKDTNFATPGAFNEAILTTDTCTKHIAVSLKIDGKTVTIGGSAKGSGMIHPNMATMLAFITTDASIESNTLHQLLKSSTDHTFNMITVDGDTSTNDMVLVMANHQVEHQILSQDHPQWETFVDAFNFVCTFLAKAIARDGEGATKLISVNVSGAKSISDARKIGKTIVSSNLVKSAIFGEDANFGRIITAIGYSGCEIDPKCTYVQLNQIPVVDKGMAVLFDEQAMSNTLTHEHVTIDVQLGLGNAAATAYGCDLSYDYVRINASYRTEGHHHHHH,soluble
3,MFDPKKFIDEAVEEIKQQISDRKAIIALSGGVDSSVAAVLTHKAIGDKLTAVFVDTGLMRKGEREEVEKTFRDKLGLNLIVVDAKDRFLNALKGVTDPEEKRKIIGKLFIDVFEEIAEDIKAEVLVQGTIAPDWIETQGKIKSHHNVALPHGMVLEVVEPLRELYKDEVRLLAKELGLPDSIVYRQPFPGPGLAVRVLGEVTEEKLNICREANAIVEEEVKKANLDKDLWQYFAVVLDCKATGVKGDEREYNWIVALRMVKSLDAMTAHVPEIPFDLLKRISKRITSEIPNVARVVFDITDKPPATIEFE,soluble
4,MDLEYAMNPGGRRRFQNKDQATYGVFAPDSDDDDDEQGTSRGPYKKRSKISAPMSFVSGGIQQGNKIDKDDPASLNLNLGGEKKPKEDDEGSIQIDFDKRTKKAPKQNGAQVFAGMRSSANHGAADINQFGSWMRGDGNSNKIMKMMQAMGYKPGEGLGAQGQGIVEPVQAQLRKGRGAVGAYGKESTATGPKFGESAADAQKRMAQEGTSSRPTNDDQEKSGLKIKGSWKKSQTVKTKYRTIEDVMEEGMSASRPASHQQSQQYSNIKVIDMTGKQQKIYSGYDSFSMKTRSEYDTVDDEERTVFDVPELIHNLNLLVDLTEEGIRRSNQQLISLKDQTTALEYDLQQVQKSLGTEEQEAQHIKDVYELIDGFSSNRSPSMEECQELFRRLRSEFPHEYELYSLETVAIPTVLPLIQKYFVAWKPLEDKNYGCELISTWRDILDDSKNGRKMTFGHNKTKGDEIRAYDRIIWEGILPSIRRACLQWDPSTQMHEMIELVEQWIPLLSAWITENILEQLVVPKIAERVNQWDPMTDEIPIHEWLVPWLVLLGDRIQTVMPPIRQKLSKALKLWDPMDRSALETLRPWQNVWSAATFSAFIAQNIVPKLGVALDTMELNPTMNPEYPEWTACMEWLEFTHPDAIANIVTKYFFPRFYNCLCLWLDSPGVDYNEVKRWYGSWKARIPQVLVNYPTVNENLRRSMIAIGRSLQGEKVGGLQATPIAPMAPPPPMAPHFTQAAPVQKLSLKEIIEYTAGKNGFTYHPQKDRYKDGRQVFWFGALSIYLDSEMVYVMDPIEFVWRPSGLNELIQMAQGAQG,not soluble
5,MAGRPKDPTINKKIYTEIQRLLETTHFRDITIDQISENTGISKATIYRRWKDKSSIIMSAFIEQSQYIAIHNQDNLYDDLFQFLVKIKDIYKTKLGSAVIEILISHQQMEARETFMTNYFNHNRKVLKEIVRKHIQEEEQDLFIDLIFSPIYFNILIKPETLDENYIKKMLNQVLRIYH,not soluble
6,MNLDTPLADGLERAKRFEQGLQQVVLGQERPIRLLTLAVFARGHALLEGGVGVGKTTLLRAVARGIGGDYERIEGTIDLMPNDLVYYTYLDEQGRPGVAPGPLLKHGEQLSIFFFNEINRARPQVHSLLLRVMAERSVSAFNREYRFPYLQVFADRNRVEKEETFELPAAARDRFMLEIAIEPPADPAHIDQILFDPRFYDPDRLVASAPADTLSFRELNGIAEALQGGIHVSARLRSYVQDLWRATRRPEDFGIALHEADSGDMIEAGSSPRGMSYLVRLARVQAWLSGRDRVEPEDVQYVFAPAVGHRIFLKPVYEYRRAELIPELVGKLIRRIAAPLEHHHHHH,not soluble
7,MGSDKIHHHHHHMSRISEEIENLTVELVKVPSVNGTEGEGNIGNKILSYLKEIDYFKEHEEYAFRIPLKNDKLGRGNVFALIRGEKGQSNRTIILHGHMDTVAVDDYGSLKDYAFDPDILQKKLKEIELPEEVREDLDSGDWMFGRGASDMKSGDAVHLVVLKELSKRVKDISGNILFMSNPVEENEHNGIREALDTLEKLKEKYSLEYTLAINNDYICPMYKGDNTRYLYTGTVGKLLPAFYFVGKETHVGQCFEGINADVIASEVINEIDLNVDLCDEYNGEYTLPPSVLKFKDLKESYNVQTPFSSFAYFNYTVHSESPKQASEKLKKAAKRAFERVIKRNDDRYKKYCEMTNQKYEPLNFQAKVITYTQLYTLAKARFSGDLDKEIKSYEQRLVDNYVDIREISLRVVDKVFNIWGEKKPCIVMFFAPPYCPHNTLNVKNEKEKEIINKIKECAQQLKEKEGINEEFKVMQFFPSLSDSSYLKIDDDSEGIESLTSNFPGWDRVYGVPVQKIKDLNIPAINYGCYGKDAHKWTERVYKPYSFEVLPKLIMLTIEKFL,not soluble
8,MAHHHHHHMQAQMMLGQALEHYAMMDFANLVLEQCWDICYDSQLTRPELAGGALPDVKAQKMDACARKCVARHFEVLTLLSATRELREKERMQGLPPGTLTSM,not soluble
9,MGSDKIHHHHHHMMRPALRSTSTPKSPLVTCVSHDLTVSAPQGVFLSGLNTKFRAYVGGFGSGKTYVGCLDLGLFAGQHPKTVQGYFAPTYRDIRDTFWPTVDEAAHSLGFTTKVKSADKEVEFYRGRSYYGTTICRSMDDPGGIVGFKIARALVDEIDILSKDKAQAAWRKIIARMRLVLPGVVNGIGVTTTPEGFRFVYDSFKREPKSNYSMVQASTYENEAFLPPDYISTLLEDYPEELIKAYLMGEFVNLTSGTVYRSYDRLRHRSTQSIQPREPLHIGQDFNVGNMASVVFVQRGEDWHAVDELQGLQDTPHLIEVLCDRYEGHHLTIYPDASGSSRKTVNASTSDIELLRKAGHAIRAPSTNPAVKDRILAVNTAFENGRLFVNALRCKAYAEALEQQAYDKNGEPDKSAGLDHHPDAGGYFVHQKMPVVKPTFTRQELRL,not soluble
10,MPDGWRKMGVLVFYDLPVVSPEQRLAAVRFHKFLLADGFERMHYSIYARYCGSMERAATYERRVEQALPAVGHVNLLKLTDRQMVGMRKWIRGNYRAPENAEFVPPAQYQLFLEHHHHHH,not soluble
11,MKELNDLEKKYNAHIGVYALDTKSGKEVKFNSDKRFAYASTSHAINSAILLEQVPYNKLNKKVHINKDDIVAYSPILEKYVGKDITLKALIEASMTYSDNTANNKIIKEIGGIKKVKQRLKELGDKVTNPVRYEIELNYYSPKSKKDTSTPAAFGKTLNKLIANGKLSKENKKFLLDLMLNNKSGDTLIKDGVPKDYKVADKSGQAITYASRNDVAFVYPKGQSEPIVLVIFTNKDNKSDKPNDKLISETAKSVMKEF,soluble
12,MTLETAFMLPVQDAQHSFRRLLKAMSEPGVIVALHQLKRGWQPLNIATTSVLLTLADNDTPVWLSTPLNNDIVNQSLRFHTNAPLVSQPEQATFAVTDEAISSEQLNALSTGTAVAPEAGATLILQVASLSGGRMLRLTGAGIAEERMIAPQLPECILHELTERPHPFPLGIDLILTCGERLLAIPRTTHVEVC,soluble
13,MHHHHHHSSGVDLGTENLYFQSMLNTSGSGTILIDLSPDDKEFQSVEEEMQSTVREHRDGGHAGGIFNRYNILKIQKVCNKKLWERYTHRRKEVSEENHNHANERMLFHGSPFVNAIIHKGFDERHAYIGGMFGAGIYFAENSSKSNQYVYGIGGGTGCPVHKDRSCYICHRQLLFCRVTLGKSFLQFSAMKMAHSPPGHHSVTGRPSVNGLALAEYVIYRGEQAYPEYLITYQIMRPEG,soluble
14,MSLAVVKGARVQVPFGQQIKVGIVVDLPSTTDIPQSKLKPIHAVLDHQAIFDPEIWQLLHWAASYYHAAIGEVLASALPVKLRNGDAAEYVENDYFRVTELGQQRLVSPENKRSKKQYDLLSRLAEIAGFFEKPAGVSPSVWKALLEKGYLAKVVPTCQRKSWQQSLANRPLVNSQSRLVLNQQQTLVVSRLNACQNFETFLLNGITGSGKTEVYLQVIEQILKQDKQVLVLVPEIGLTPQMVNRFKTRFNVEIDVLHSNINETMRLKVWLKAKNGESAIVIGTRSALFTQFQRLGLIIIDEEHDHSFKQQEGWRYHARDVAIFRAKCLNIPIILGSATPSLESVYNVKNGKFTQLLLSTRAGNAEIAQQQLIDLKTQRITAGLSDRLLMLMQTHLQKGNQVMLFLNRRGFAPVLLCHECGWICECDACEKPYTYHQKQRVLRCHHCASQRVIPRQCGYCGSTNLITTGIGTEQLEQLLSEYFPTYQISRIDRDSTGRKGALEHHLNAIQTGKSQILIGTQMLAKGHHFPNVTLVALVNVDSALFSTDFRAEERLAQLYLQVAGRAGRAEKTGEVVLQTHYPDHPLLKCLLKDGYNAFAEEALKMRQVMALPPFTAQVLFRATGKQSDKVEHLLQNLTAYFQHKSVELGIEGIQISPPFSAIVAKKAGYYRWLLLIQHQSRSAIQQLLNVFDQEKSALNLPANIRLSLDVDPYDMSEGHHHHHH,soluble
15,MLRTQFEEELLNLHNQFYEMGMMVSSAVHKSVKAYINHDKKLAQEVIDRDIEINDMEVKLEKKSFEMIALQQPVTTDLRMIITVMKASSDLERMADHAVSIAKSTIRLKGETRIPEIEKEISDMSDYVKKMVDNVLIAYVKTDQKDARMIAQMDDRTNEYFDSIYKHAVEAMKANPETVISGTDYLHVAQYLERIGDYVTNICEWIVYLATGKITELNSNRDEQF,not soluble
16,MGSDKIHHHHHHMAKTIRDESTASAYWAAVNTFCALKDVHVIADAPVGCYNLAGVAVMDYTDAIPYLENLTPTSLTEREISSSGSSQIVQETIEKLMGSGKQLILVSSAESEMIGSDHQHMLAMKYPSVRFFASDSLGENEWQGRDRALAWLFDQFDDGQPSQIEPGTVSIIGPTYGCFNSPADLAEVKRLVTGAGGRVAHVYPFESKAAEITKLKNSAAIVVMYREFGAALAEKLGRPVLYAPFGIEETDRFIGKIGRLCGTPEQATRFIAEEKRTTLSPVWDLWRGPQSEWFPTIRFGVVASKSYADGIKHVLGDELGMQCLFSLDSAEVDNNAVRKEIVQKQPQFLYGRMPDKIYLAEADAKSRFIPAGFPGPIVRRALGTPFMGHSGVVWLVQEIVNALYDTLFNFLPITRRQQAAAPTKPLKWTPEANAILDGIVRKAPFISQISFGRELKRKAENLAASRGADTVTPDILQQLG,not soluble
